Laboratory results from patent US20260116991A1 (HAINAN SIMCERE ZAIMING PHARMACEUTICAL, published 2026).
Positions count from the first letter of the chain named.

T1: polypeptide GC3pep (human)
T1 construct: also called membrane proximal polypeptide GC3pep
T1 peptide: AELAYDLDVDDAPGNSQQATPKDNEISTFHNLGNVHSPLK

B1: F1.136.7 (antibody, human IgG1, kappa, V domains shown)
VH: EVQLQQSGPVMVKPGPSVKISCQTSGFTFTDYYIHWVKQSHGKSLEWIGLVFPYDGGTNYNQKFKDKATLTLDTSSSTAYMELNSLTSEDSAVYYCARAGGFSYALNYWGQGTSVTVSS
VL: DIQMTQSPSSLSASLGGKVTITCKASQDINNYIAWYQHKPGKGPRLLIHFTSTLQPGIPSRFSGSGSGRDYSFSISNLEPEDIATYYCLQYDNLLLTFGAGTKLELKR
notes: human-murine chimeric antibody
B2: F1.118.4 (antibody, human IgG1, kappa, V domains shown)
VH: QVQLQQSGAELAKPGASVKLSCKASGYSFTSYWIHWVKQRPGQGLEWIGYINPSSGYTKYNQKFKDKATLTADKSSSTAYMQLSSLTYEDSAVYYCARFGSSSFYFDYWGQGTTLTVSS
VL: DIVLTQSPASLAVSLGQRATISCRASQSVSSSSYSYMHWYQQKPGQPPKLLIKYASNLDSGVPARFSGSGSGTDFTLNIHPVEEEDTATYYCQHSWEIPAFGGGTKLEIKR
notes: as for B1
B3: F1.62.9 (antibody, human IgG1, kappa, V domains shown)
VH: QVQLQQSDAELVKPGASVKISCKVSGYIFTDHTIHWMKQRPEQGLEWIGYIYPRDGSIKYNENFKGKATLTADKSSSATYMQLNSLTSEDSAVYFCARPIYYDYAYYFDYWGQGTTLTVSS
VL: DVVMTQSPLSLPVSLGDQASISCRSRQSLVHSNGNTYLHWYLQKPGQSPKVLIYKVSNRFSGVPDRFSGSGSGTDFTLKISRVEAEDLGVYFCSQSTHVPYTFGGGTKLEIKR
notes: as for B1
B4: F2.39.2 (antibody, human IgG1, kappa, V domains shown)
VH: QVQLQQSGAELVRPGASVKVSCKASGYTFTDYEMHWMKQTPVHGLEWIGANEPETGRSAYDQKFKGKATLTADKSSSTAYMELRSLTSEDSAVYYCTRFYSFAYWGQGTLVTVSA
VL: B3 VL with S7T, R26S, S28G, S32N, V51L, S96N, Y101P
notes: as for B1
B5: F2.92.1 (antibody, human IgG1, kappa, V domains shown)
VH: QVQLQQSGAELVRPGASVKLSCKASGYIFSDYEIHWVKQTPVHGLECIGAVDPETGGTAYNQKFKGKATLTADKSSSTAYMELRSLTSEDSAVYFCTRFYSFAYWGQGTLVTVST
VL: B3 VL with S7T, A19G, R26S, H39Q, V51L, S94C, P100L, Y101P
notes: as for B1
B6: F3.54.12 (antibody, human IgG1, kappa, V domains shown)
VH: QVQLQQSGAELVRPGASVKLSCKASGYTFTDYEMHWVKQTPVHGLEWIGAIDPETGNTAYIQKFKGKATLTTDKSSSTAYMELRSLTSEDSAVYYCTRFYSYSHWGQGTTLTVSS
VL: B3 VL with S7T, R26S, V51L, G71S, S96N, Y101P
notes: as for B1
B7: F2.23.8 (antibody, human IgG1, kappa, V domains shown)
VH: B5 VH with I28T, S30T, I34M, C47W, I48F, V51I, K65R, G66A, F95Y, T115A
VL: B3 VL with S7T, R26S, H39Q, V51L, S81T, G105S
notes: as for B1
B8: F1.153.1 (antibody, human IgG1, kappa, V domains shown)
VH: QIQLVQSGPELKKPGETVKISCKASGYTFTTAGMQWVQKMPGKGFKWIGWINTHSGEPQYAEDFKGRFAFSLETSASTAYLQISNLKNEDTATYFCARSFYYHGSSFFYFDYWGQGTTLTVSS
VL: DIVMTQSQKFMSTTVGDRVSITCKASQNVGTAVAWYQQKPGQSPKLLIYSASNRYTGVPDRFTGSGSGADFTLTISNMQSEDLADYFCQQYSRYPLTFGAGTKLELKR
notes: as for B1
B9: F1.9.19 (antibody, human IgG1, kappa, V domains shown)
VH: DVQLQESGPGLVKPSQSLSLTCSVTGYSITSGYYWNWIRQFPGNRLEWMAYISYDGINNYNPSLKNRISIARDTSTNQFFLKLNSVTSEDTATYYCATTTEVALFDHWGQGTTLTVSS
VL: DVLLTQTPLSLPVSLGDQASISCRSSQNIVHGNGNTYLEWFLQKPGQSPKLLIYKVSNRFSGVPDRFSGSGSGTDFTLKISRVEAEDLGLYYCFQASHVPWTFGGGTKLEIKR
notes: as for B1
B10: F2.154.1 (antibody, human IgG1, kappa, V domains shown)
VH: QVQLQQSGAELVRPGASVKLSCKASGYRFTDYEMHWVKQTPVHGLEWIGTIDPETGNTAYTQKFMDKATLTADKSSSTAYMELRSLTSEDSAVYYCTRGYSFTYWGQGTLATVSA
VL: B9 VL with L4M, G32S, E39Q, F41Y, Y54F, L90V, A96G, W101F, G105T
notes: as for B1
B11: F2.152.3 (antibody, human IgG1, kappa, V domains shown)
VH: EVQLQQSGPELVKPGASVKMSCKASGYTFTDYYMTWVKQSHGKSLEWIGRVNPRNGDTTYNQKFEGRATLTLDKSLSTAFMQLNSLTSEDSAVYYCINSKGHFDYWGQGTTLTVSS
VL: B9 VL with L4M, N28S, G32S, L51S, L90V, A96G, W101P, G105A, I111L
notes: as for B1
B12: F2.169.2 (antibody, human IgG1, kappa, V domains shown)
VH: EVQLVETGGGLVQPKGSLKLSCAASGFSFNTNAMNWVRQAPGKGLEWVARIRSKSNNYATYYADSVKDRFTISRDDSQSMLYLQMNNLKTEDTAMYYCVRDGYYVLFAYWGQGTLVTVSA
VL: B9 VL with L4M, S25F, N28S, H31N, G32S, L90V, A96G, W101F, G105T
notes: as for B1
B13: F3.38.7 (antibody, human IgG1, kappa, V domains shown)
VH: QVQLQQSGAELVRPGASVKLSCKASGYTFTDYEIHWVKQTPVLGLEWIGAIDPKTGNTAYNQKFMGKATLTADKSSTTAYMDLRSLTSEDSAVYYCTRYFSFAYWGQGTLVTVSA
VL: B9 VL with L4M, N28T, I29F, G32S, E39Q, F41Y, L90V, A96G, W101Y, G105S
notes: as for B1
B14: F2.55.11 (antibody, human IgG1, kappa, V domains shown)
VH: EVKLVESGGGLVKPGGSLKLSCAASGLTFSTCTMSWVRQTPAKRLEWVATISSGGGNTYYPDSVKGRFTISRDNARNTLYLQMSSLRSEDTAMYYCVRLYYDGSPYAMDYWGQGTSVTVSS
VL: DIQMTQTTSSLSASLGDRVTISCRASQDISNHLNWYQQKPDGTVKLLIYYTSRLHSGVPSRFSGSGSGTDYSLTISNLEQEDIATYFCQQDSKPPPTFGSGTKLEIKR
notes: as for B1
B15: F1.120.16 (antibody, human IgG1, kappa, V domains shown)
VH: EFQLQQSGPELVKPGASVKISCKASGYSFTDYNMNWVKQSNGKSLEWIGLIHPKFSVTSYNRKFKGKATLTVDQSSSTAYMQLNSLTSEDSAVYYCARWAGDYFDYWGQGTTLTVSS
VL: DIVLTQSPATLSVTPGDSVSLSCRASQSISNNLHWYQQKSHESPRLLIKYASQSISGIPSRFSGSGSGTDFTLTINSVETEDFGMYFCQQSNSWPQTFGGGTKLEIKR
notes: as for B1
B16: F1.3.9 (antibody, human IgG1, kappa, V domains shown)
VH: QVQLQQPGTELVKPGASVKLSCKASGYTFTSYWIHWVKQRPGQGLEWIGNINPPNAGTNYNEKFKSKATLTVDKSSSTAYMQLSSLTSEDSAVYYCARGRWLLHDYWGQGTTLTVSS
VL: DIQMTQSPASLSISVGETVTITCRASENIYSNLAWYQQKQGKSPQLLVYGTKNLAEGVPSRFSGSGSGTQYSLKINSLQSEDFGNYYCQHFWGTPYTFGGGTKLEILR
notes: as for B1

Biological target: T1, polypeptide GC3pep
Assay: ELISA, GC3pep coated, antibody 10 nM;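 also: antibody bound to the coated peptide for 2 h at 37 °C, detected through an HRP-conjugated secondary antibody with TMB colour development stopped by acid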
Experimental: (§1) The plate was sealed with a plastic film and incubated at 4° C. overnight, washed twice with PBS the next day, and a blocking solution [PBS+2% (w/w) BSA] was added for blocking at room temperature for 2 h. […] After incubation at 37° C. for 2 h, the plate was washed 3 times with PBS. A horseradish peroxidase (HRP)-labeled secondary antibody (purchased from Merck, Cat. No. AP113P) was added for incubation at 37° C. for 1 h, and the plate was washed 5 times with PBS. A TMB substrate was added at 50 μL/well for incubation at room temperature for 10 min, then a stop solution (1.0M HCl) was added at 50 μL/well.

OD450 nm [OD450 nm]	Binder
0.04	B1
0.05	B2
0.07	B3
2.38	B4
2.28	B5
2.8	B6
2.42	B7
0.05	B8
0.06	B9
2.42	B10
2.43	B11
2.38	B12
2.83	B13
2.51	B14
0.06	B15
0.06	B16

Biological target: T1, polypeptide GC3pep
Assay: ELISA, GC3pep coated, antibody 0.001 nM

OD450 nm [OD450 nm]	Binder
0.04	B1
0.04	B2
0.05	B3
0.09	B4
0.07	B5
0.09	B6
0.1	B7
0.05	B8
0.07	B9
0.06	B10
0.09	B11
0.06	B12
0.06	B13
0.07	B14
0.04	B15
0.05	B16

Biological target: T1, polypeptide GC3pep
Assay: ELISA, GC3pep coated, antibody 0.0001 nM

OD450 nm [OD450 nm]	Binder
0.05	B1
0.05	B2
0.05	B3
0.05	B4
0.05	B5
0.07	B6
0.07	B7
0.06	B8
0.05	B9
0.05	B10
0.05	B11
0.05	B12
0.05	B13
0.05	B14
0.05	B15
0.07	B16

Biological target: T1, polypeptide GC3pep
Assay: ELISA, GC3pep coated, antibody 100 nM;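 also: detection with an HRP-conjugated secondary antibody and TMB substrate, color reaction stopped with HCl before absorbance reading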
Experimental: as §1

OD450 nm [OD450 nm]	Binder
0.08	B1
0.06	B2
0.13	B3
2.58	B4
2.41	B5
3.03	B6
2.51	B7
0.11	B8
0.08	B9
2.73	B10
2.63	B11
2.73	B12
3.22	B13
2.85	B14
0.08	B15
0.13	B16

Biological target: T1, polypeptide GC3pep
Assay: ELISA, GC3pep coated, antibody 0.1 nM;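 also: antibody allowed to bind the coated plate 2 h at 37 °C, then detected via HRP-conjugated secondary antibody and TMB development for 10 min, stopped with HCl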
Experimental: as §1

OD450 nm [OD450 nm]	Binder
0.04	B1
0.04	B2
0.05	B3
1.35	B4
0.85	B5
1.63	B6
1.38	B7
0.05	B8
0.04	B9
1.13	B10
1.53	B11
1.25	B12
1.01	B13
1.34	B14
0.04	B15
0.05	B16

Biological target: T1, polypeptide GC3pep
Assay: ELISA, GC3pep coated, antibody 1 nM;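 also: bound antibody detected with an HRP-conjugated secondary antibody and TMB substrate, reaction stopped with HCl, after 2 h binding at 37 °C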
Experimental: as §1

OD450 nm [OD450 nm]	Binder
0.04	B1
0.04	B2
0.05	B3
2.21	B4
1.92	B5
2.64	B6
2.12	B7
0.04	B8
0.06	B9
2.29	B10
2.18	B11
2.36	B12
2.57	B13
2.41	B14
0.04	B15
0.05	B16

Biological target: T1, polypeptide GC3pep
Assay: ELISA, GC3pep coated, antibody 0.01 nM;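 also: bound antibody detected with an HRP-conjugated secondary antibody and TMB substrate, color reaction stopped with HCl before reading absorbance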
Experimental: as §1

OD450 nm [OD450 nm]	Binder
0.04	B1
0.04	B2
0.05	B3
0.32	B4
0.15	B5
0.33	B6
0.3	B7
0.04	B8
0.05	B9
0.2	B10
0.35	B11
0.24	B12
0.19	B13
0.26	B14
0.04	B15
0.05	B16
